According to PMC6948101 (Nature, 2019):

Molecular target: the molecule itself
Assay: SEC-MALS

B1: DHR10-mica6-NC (designed binder)
chain: GSGGSSEVLELAIRLIKEVVENAQREGYDISEAAAAAAEAFAAVAEAAKAAGITSSEVLELAIRLIKEVVENAQREGYDISEAAAAAAEAFAAVAEAAKAAGITSSEVLELAIRLIKEVVENAQREGYDISEAAAAAAEAFAAVAEAAKAAGIASSEVLELAIRLIKEVVENAQREGYDISEAAAAAAEAFAAVAEAAKAAGITSSEVLELAIRLIKEVVENAQREGYDISEAAAAAAEAFAAVAEAAKAAGIASSEVLELAIRLIKEVVENAQREGYDISEAAAAAAEAFAAVAEAAKAAGIGWE
- stoichiometry N: 2.1 times the MW of a monomer
